According to the supplement of paper PMC10126150:
± gives the standard deviation of the averaged measurements.

Tested on: ATP
Experiment: switch fluorescence ratio, 500 uM ATP over buffer (Cy3 cluster intensity, sum of 5 cycles each) (fold (ratio)); higher = stronger signal-on switching upon ATP binding; sequences stand for … in TCGTCGGCAGCGTCAGATGTGTATAAGAGACAGTTTTTTTTTTTTTTTTTTTTTTTTT…TC
Conditions: aptamer strand: ATP DNA aptamer (quencher-CACCTGGGGGAGTATTGCGGAGGAAGG + anchor), 100 nM annealed; ATP concentration: 500 uM
In short: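 Cy3-labelled switching-strand clusters on a modified Illumina MiSeq flow-cell were annealed to 100 nM quencher-labelled ATP aptamer and imaged first in selection buffer, then after 15 min with 500 uM ATP at 22 °C. NaOH stripping and re-annealing separated each of five buffer/ATP cycles, and clusters outside 100-1000 RFU were excluded. The fluorescence ratio sums target-cycle Cy3 intensity over buffer-cycle Cy3 intensity per cluster and averages it per switch-domain sequence.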
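Also: ATP exposure 15 min at 22 °C before imaging.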

| Sequence | switch fluorescence ratio |
| --- | --- |
| ATGTTTGGAG | 0.982 ± 0.018 |
| ATGTTTGGGC | 0.9597 ± 0.0085 |
| ATGTTTTATC | 0.994 ± 0.016 |
| ATGTTTTCGG | 0.99 ± 0.044 |
| ATTAAAAAAA | 1.11 ± 0.18 |
| ATTAAAAAAC | 1.01 ± 0.016 |
| ATTAAAATAT | 1.12 ± 0.19 |
| ATTAAACAG | 1.05 ± 0.07 |
| ATTAAACCAG | 1.1 ± 0.11 |
| ATTAAAGGTT | 0.99 ± 0.022 |
| ATTAAAGTAG | 1.006 ± 0.0067 |
| ATTAAATCCG | 1.042 ± 0.0099 |
| ATTAACGAGG | 1.04 ± 0.013 |
| ATTAACTTCG | 0.983 ± 0.013 |
| ATTAAGAAGG | 1.002 ± 0.0095 |
| ATTAAGGGGA | 1.04 ± 0.049 |
| ATTAATCAGT | 1.002 ± 0.0083 |
| ATTAATCCAT | 0.987 ± 0.019 |
| ATTAATGTGA | 1 ± 0.031 |
| ATTAATTGTG | 1.01 ± 0.018 |
| ATTACAAAAA | 1.01 ± 0.014 |
| ATTACCCGGA | 1 ± 0.028 |
| ATTACCGGCG | 0.996 ± 0.025 |
| ATTACGGAAA | 1.74 ± 0.96 |
| ATTACGGAAC | 1.26 ± 0.018 |
| ATTACGGCAC | 2.09 ± 0.14 |

| Sequence | switch fluorescence ratio |
| --- | --- |
| ATTACGGTCT | 1.04 ± 0.02 |
| ATTACGGTGG | 1 ± 0.045 |
| ATTACTGCAT | 1.07 ± 0.059 |
| ATTACTGGTG | 1.1 ± 0.019 |
| ATTACTTTTC | 1.006 ± 0.0057 |
| ATTAGAAAAG | 0.991 ± 0.03 |
| ATTAGACAGC | 1.01 ± 0.032 |
| ATTAGGAAAA | 1.02 ± 0.025 |
| ATTAGGATGT | 0.9948 ± 0.0027 |
| ATTAGGCGTG | 0.987 ± 0.01 |
| ATTAGGGAGC | 0.989 ± 0.011 |
| ATTAGGGCAT | 1.006 ± 0.0075 |
| ATTAGGGCCA | 1.007 ± 0.0078 |
| ATTAGGGGCC | 0.976 ± 0.018 |
| ATTAGGGGGA | 1.03 ± 0.014 |
| ATTAGGTGTT | 1.03 ± 0.066 |
| ATTAGTACTT | 0.987 ± 0.015 |
| ATTAGTAG | 1.022 ± 0.0095 |
| ATTAGTGATA | 0.9756 ± 0.0025 |
| ATTAGTTGTG | 0.976 ± 0.011 |
| ATTATAACAG | 1.038 ± 0.009 |
| ATTATAACTC | 0.957 ± 0.036 |
| ATTATACCTT | 1.182 ± 0.011 |
| ATTATAGTTG | 1.039 ± 0.0094 |
| ATTATATCGG | 0.9981 ± 0.0031 |
| ATTATATGGG | 1.016 ± 0.0029 |

| Sequence | switch fluorescence ratio |
| --- | --- |
| ATTATCAGCC | 1.022 ± 0.0041 |
| ATTATCGGGA | 1.02 ± 0.0017 |
| ATTATCGGTA | 0.974 ± 0.058 |
| ATTATCTGGT | 1.02 ± 0.043 |
| ATTATGCCTG | 1.06 ± 0.044 |
| ATTATGCTAT | 1.052 ± 0.0094 |
| ATTATGGTTA | 0.9884 ± 0.0097 |
| ATTATGTTCT | 1.01 ± 0.013 |
| ATTATTAAAT | 1.08 ± 0.18 |
| ATTATTAAGT | 0.987 ± 0.025 |
| ATTATTATGC | 0.97 ± 0.025 |
| ATTATTTACT | 1.018 ± 0.0017 |
| ATTATTTGTC | 1.01 ± 0.044 |
| ATTCAACGGG | 1.04 ± 0.013 |
| ATTCAAGGTT | 0.973 ± 0.024 |
| ATTCACCGGA | 1.031 ± 0.0044 |
| ATTCACTCGG | 1.38 ± 0.48 |
| ATTCAGTCAT | 0.9901 ± 0.0021 |
| ATTCATCATT | 1.003 ± 0.0043 |
| ATTCCCGGTT | 1.03 ± 0.022 |
| ATTCCGCCGA | 1.48 ± 0.08 |
| ATTCCGGCGG | 0.976 ± 0.015 |
| ATTCCTAGGG | 1.048 ± 0.0022 |
| ATTCCTCAGC | 2.39 ± 0.49 |
| ATTCCTGGGG | 1.05 ± 0.012 |
